The values below come from the supplement of paper PMC10567573.

B1: PKD2L1 (parent)
chain: TLARCAKDILGFAVMFFIVFFAYA
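Further: lentivirally expressed fusions sorted by FACS into six bins by GFP to DsRed ratio, PSI derived from sequencing read proportions per bin multiplied by bin number.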

The variants in the series derive from B1. The experiment in a line: protein stability index of a GFP-peptide fusion (GPS, HEK-293T) (PSI 1-6); higher = more stable. The settings on record: c terminus: a fixed tail appended.
On to TLARCAKDILGFAVMFFAVFFAYA, for which the protein stability index came out at 2.54.
As for TLARCAKDILGFAVMFFMVFFAYA, the protein stability index came out at 1.49.
The same measure for TLARCAKDILGFAVMFFNVFFAYA: 1.6.
The figure for TLARCAKDILGFAVMFFWVFFAYA is 3.5; for TLARCAKDILGFAVMFFEVFFAYA it is 2.
The figure for TLARCAKDILGFAVMFFKVFFAYA is 1.71; for TLARCAKDILGFAVMFFQVFFAYA it is 1.54; for TLARCAKDILGFAVMFFTVFFAYA it is 1.74.
Consider TLARCAKDILGFAVMFFSVFFAYA, for which the protein stability index is 1.72.
The same measure for TLARCAKDILGFAVMFFYVFFAYA: 3.2; for TLARCAKDILGFAVMFFCVFFAYA: 2.29; for TLARCAKDILGFAVMFFHVFFAYA: 1.92.
The same measure for TLARCAKDILGFAVMFFPVFFAYA: 2.18.
The figure for TLARCAKDILGFAVMFFRVFFAYA is 2.18.
In the case of TLARCAKDILGFAVMFFDVFFAYA, the protein stability index was 3.03.
The same measure for TLARCAKDILGFAVMFFGVFFAYA: 2.09.
Consider TLARCAKDILGFAVMFFFVFFAYA, for which the protein stability index was 3.16.
The figure for TLARCAKDILNFAVMFFIVFFAYA is 2.4; for TLARCAKDILTFAVMFFIVFFAYA it is 3.47; for TLARCAKDILRFAVMFFIVFFAYA it is 2.72.
In the case of TLARCAKDILSFAVMFFIVFFAYA, the protein stability index was found to be 3.06.
Take TLARCAKDILWFAVMFFIVFFAYA: the protein stability index amounted to 1.06.
Turning to TLARCAKDILFFAVMFFIVFFAYA, the protein stability index is 1.22.
The same measure for TLARCAKDILHFAVMFFIVFFAYA: 3.32.
The same measure for TLARCAKDILKFAVMFFIVFFAYA: 3.33.
The figure for TLARCAKDILVFAVMFFIVFFAYA is 1.74.
Turning to TLARCAKDILPFAVMFFIVFFAYA, the protein stability index was found to be 1.81.
The figure for TLARCAKDILMFAVMFFIVFFAYA is 1.48; for TLARCAKDILYFAVMFFIVFFAYA it is 2.38; for TLARCAKDILQFAVMFFIVFFAYA it is 2.35.
Consider TLARCAKDILIFAVMFFIVFFAYA, for which the protein stability index worked out at 2.79.
The figure for TLARCAKDILLFAVMFFIVFFAYA is 1.73.
The same measure for TLARCAKDILGFADMFFIVFFAYA: 2.59; for TLARCAKDILGFAFMFFIVFFAYA: 2.3; for TLARCAKDILGFAQMFFIVFFAYA: 2.46.
As to TLARCAKDILGFAEMFFIVFFAYA, the protein stability index stood at 2.48.
The same measure for TLARCAKDILGFACMFFIVFFAYA: 2.86; for TLARCAKDILGFAIMFFIVFFAYA: 1.86; for TLARCAKDILGFAHMFFIVFFAYA: 2.85.
The same measure for TLARCAKDILGFAPMFFIVFFAYA: 1.82; for TLARCAKDILGFARMFFIVFFAYA: 2.82.
The same measure for TLARCAKDILGFANMFFIVFFAYA: 3.15; for TLARCAKDILGFAKMFFIVFFAYA: 3.08.
Regarding TLARCAKDILGFATMFFIVFFAYA, the protein stability index turned out to be 2.07.
The same measure for TLARCAKDILGFASMFFIVFFAYA: 2.61; for TLARCAKDILGFAGMFFIVFFAYA: 1.9.
For the variant TLARCAKDILGFAMMFFIVFFAYA, the protein stability index was 1.61.
The same measure for TLARCAKDILGFAYMFFIVFFAYA: 3.2; for TLARCAKDILGFALMFFIVFFAYA: 3.47.
The figure for TLARCAKDILGFAAMFFIVFFAYA is 2.06; for TLARCAKDILGFRVMFFIVFFAYA it is 3.17; for TLARCAKDILGFYVMFFIVFFAYA it is 2.65.
The same measure for TLARCAKDILGFCVMFFIVFFAYA: 2.25; for TLARCAKDILGFPVMFFIVFFAYA: 1.65.
Take TLARCAKDILGFLVMFFIVFFAYA: the protein stability index was found to be 2.63.
The figure for TLARCAKDILGFKVMFFIVFFAYA is 3.14; for TLARCAKDILGFEVMFFIVFFAYA it is 2.82; for TLARCAKDILGFHVMFFIVFFAYA it is 2.15.
Regarding TLARCAKDILGFFVMFFIVFFAYA, the protein stability index turned out to be 2.92.
The figure for TLARCAKDILGFDVMFFIVFFAYA is 1.84.
The same measure for TLARCAKDILGFGVMFFIVFFAYA: 2.06; for TLARCAKDILGFSVMFFIVFFAYA: 1.75.
The figure for TLARCAKDILGFNVMFFIVFFAYA is 2.11.
Take TLARCAKDILGFIVMFFIVFFAYA: the protein stability index was 1.52.
The figure for TLARCAKDILGFQVMFFIVFFAYA is 2.25.
The same measure for TLARCAKDILGFAVGFFIVFFAYA: 2.48; for TLARCAKDILGFAVSFFIVFFAYA: 1.33; for TLARCAKDILGFAVKFFIVFFAYA: 2.58.
The figure for TLARCAKDILGFAVDFFIVFFAYA is 2.89; for TLARCAKDILGFAVAFFIVFFAYA it is 2.27.
Consider TLARCAKDILGFAVQFFIVFFAYA, for which the protein stability index worked out at 3.41.
The same measure for TLARCAKDILGFAVIFFIVFFAYA: 3.37; for TLARCAKDILGFAVLFFIVFFAYA: 1.25.
The same measure for TLARCAKDILGFAVCFFIVFFAYA: 2.86.
TLARCAKDILGFAVHFFIVFFAYA: the protein stability index turned out to be 2.17.
The figure for TLARCAKDILGFAVFFFIVFFAYA is 2.54.
The figure for TLARCAKDILGFAVRFFIVFFAYA is 3.16; for TLARCAKDILGFAVPFFIVFFAYA it is 2.62; for TLARCAKDILGFAVVFFIVFFAYA it is 1.88.
For the variant TLARCAKDILGFAVNFFIVFFAYA, the protein stability index turned out to be 1.32.
The same measure for TLARCAKDILGFAVEFFIVFFAYA: 2.61; for TLARCAKDILGFAVYFFIVFFAYA: 1.72.
The figure for TLARCAKDILGFAVWFFIVFFAYA is 2.5.
In the case of TLARCAKDILGFAVMFFIVFSAYA, the protein stability index is 2.01.
Consider TLARCAKDILGFAVMFFIVFNAYA, for which the protein stability index worked out at 2.78.
The same measure for TLARCAKDILGFAVMFFIVFTAYA: 2.88; for TLARCAKDILGFAVMFFIVFRAYA: 2.16; for TLARCAKDILGFAVMFFIVFAAYA: 2.11.
For the variant TLARCAKDILGFAVMFFIVFMAYA, the protein stability index is 2.54.
Take TLARCAKDILGFAVMFFIVFYAYA: the protein stability index was determined as 3.96.
With TLARCAKDILGFAVMFFIVFCAYA, the protein stability index stood at 3.17.
The same measure for TLARCAKDILGFAVMFFIVFLAYA: 1.94; for TLARCAKDILGFAVMFFIVFWAYA: 2.46; for TLARCAKDILGFAVMFFIVFGAYA: 2.08.
